Laboratory results from patent US20260297170 (published 2026).

Biological target: rFGF2 (human, UniProt P09038)
Assay: SPR

rFGF2, sequence (P09038 143-288): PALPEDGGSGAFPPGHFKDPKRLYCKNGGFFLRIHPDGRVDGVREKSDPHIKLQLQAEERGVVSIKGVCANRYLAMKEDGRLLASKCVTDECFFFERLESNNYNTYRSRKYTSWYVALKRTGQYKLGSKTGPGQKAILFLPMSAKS

Row | Binder | Kd
1 | 62K98H (antibody, V domains shown) VH: QITLKESGPTLVKPTQTLTLTCTFSGFSLSTSGVGVGWIRQPPGEALEWLAVIHWNEANYYSPYLRSRLTITKDTSKNQMVLTVTNMDPVDTATYYCARGANSDSSGRLDAFDIWGQGTMVTVSS VL: DVVMTQSPLSLPVTLGQPASISCRSSQSLIYSDGNTRLYWFHQRPGQSPRRLIYGVSNRDSGVPDRFSGSGSGTDFTLKISRVEAEDVGVYYCMQSTHWPHTFGQGTKLEIK | 9.1 nM
2 | 85L117H (antibody, V domains shown) VH: QVQLVQSGAELKRPGSSVKVSCRASGDTFKNYAITWVRQAPGQGLEWVGGIDPLVGVPNYTHRFQGRVTITADEPTSTTYMEFRDLTSDDTAVYYCARGVRDQHWSYFDSWGQGTLVTVSS VL: QSVLTQPPSASGTPGQTVNISCSGATSNIGGGSVNWYQQLPGAAPRLLIHSDNERASGVPDRFSGSKSGTSASLAISGLQSEDEADYFCASWDDSLDGHVVFGGGTKVTVL | 17 nM
3 | Murine 3F12E7 (antibody, V domains shown) VH: GELQESGPELVKPGASVKISCKASGYSFTGYYMNWVKHSPEKSLEWIGEINPSTGGTSYNQKFKAKATLTVDKSSTTAYMQLKGLTSEDSAVYYCASGGYYEGFDYWGQGTTVTVSS VL: DIELTQSPASLSASVGETVTGNIYSYLAWYQQKQGKSPQLLVYDAKTLADGVPSRFTGSGSGTQFSLKINSLQPEDFGSYYCQHFWNTPRTFGGGTKLEIK | 0.413 nM
